Measured values: US5958748, “DNA coding for serine/threonine kinase” (dated 1999)

Molecular target: fused protein of GAL4 DNA binding domain and mouse ATF4 leucine zipper domain (amino acids 298 to 349 in the … (mouse, UniProt P04386))
Assay: yeast two-hybrid, colony formation on histidine-, tryptophan-, leucine- medium
Description: The site to which ZIP-kinase and ATF4 bind was determined using yeast two-hybrid system. First, variants of mouse ZIP-kinase were prepared: 1) amino acids 278 to 448 of ZIP-kinase (ZIP-kinase 278–448); 2) leucine zipper domain of ZIP-kinase (amino acids 398 to 448) (ZIP-kinase LZ); and 3) a variant of ZIP-kinase in which valine and leucine in the leucine zipper domain were substituted with alanine (ZIP-kinase LA). Each of these variants was designed to produce a chimeric protein with GAL4 trans activating domain, and DNA coding for said chimeric protein was inserted into pACT2 and introduced into yeast strain Y190 together with pAS2-1-ATF4 LZ. The strain was cultivated on histidine+, tryptophan–, leucine–, and histidine–, tryptophan–, leucine– selective media.

B1: ZIP-kinase LA (variant of mouse ZIP-kinase in which valine and leucine in the leucine zipper domain were substituted with alanine) as chimeric protein with … (enzyme)
chain: MSTFRQEDVEDHYEMGEELGSGQFAIVRKCQQKGTGMEYAAKFIKKRRLPSSRRGVSREEIEREVSILREIRHPNIITLHDVFENKTDVVLILELVSGGELFDFLAEKESLTEDEATQFLKQILDGVHYLHSKRIAHFDLKPENIMLLDKHAASPRIKLIDFGIAHRIEAGSEFKNIFGTPEFVAPEIVNYEPLGLEADMWSIGVITYILLSGASPFLGETKQETLTNISAVNYDFDEEYFSSTSELAKDFIRRLLVKDPKRRMTIAQSLEHSWIKVRRREDGARKPERRRLRAARLREYSLKSHSSMPRNTSYASFERFSRVLEDVAAAEQGLRELQRGRRQCRERVCALRAAAEQREARCRDGSAGLGRDLRRLRTELGRTEALRTRAQEEARAALLGAGGLKRRLCRLENRYDALAAQAAAEVQFARDLVRAAEQERLQAECGVR
B1: no binding.
